Legend:
[1] = molecular target: Ubiquitin-IL-18 fusion (76 amino acid ubiquitin fused to the N-terminus of mature human IL-18)
[2] = molecular target: Human precursor IL-18 (Pro-IL-18), co-expressed in E. coli from the bicistronic pET28 cassette
[3] = molecular target: Human precursor IL-18 expressed as an N-terminal hexa-histidine tagged fusion

| Protein | processing of Ub-IL-18 to mature IL-18 on co-expression in E. coli (Western blot) [1] | cleavage to mature IL-18 on co-expression in E. coli [2] | cleavage of prodomain, SDS-PAGE analysis [3] |
| --- | --- | --- | --- |
| Ubiquitin protease 1 (Ubp-1), full-length (protein) MDLFIESKINSLLQFLFGSRQDFLRNFKTWSNNNNNLSIYLLIFGIVVFFYKKPDHLNYIVESVSEMTTNFRNNNSLSRWLPRSKFTHLDEEILKRGGFIAGLVNDGNTCFMNSVLQSLASSRELMEFLDNNVIRTYEEIEQNEHNEEGNGQESAQDEATHKKNTRKGGKVYGKHKKKLNRKSSSKEDEEKSQEPDITFSVALRDLLSALNAKYYRDKPYFKTNSLLKAMSKSPRKNILLGYDQEDAQEFFQNILAELESNVKSLNTEKLDTTPVAKSELPDDALVGQLNLGEVGTVYIPTEQIDPNSILHDKSIQNFTPFKLMTPLDGITAERIGCLQCGENGGIRYSVFSGLSLNLPNENIGSTLKLSQLLSDWSKPEIIEGVECNRCALTAAHSHLFGQLKEFEKKPEGSIPEKLINAVKDRVHQIEEVLAKPVIDDEDYKKLHTANMVRKCSKSKQILISRPPPLLSIHINRSVFDPRTYMIRKNNSKVLFKSRLNLAPWCCDINEINLDARLPMSKKEKAAQQDSSEDENIGGEYYTKLHERFEQEFEDSEEEKEYDDAEGNYASHYNHTKDISNYDPLNGEVDGVTSDDEDEYIEETDALGNTIKKRIIEHSDVENENVKDNEELQEIDNVSLDEPKINVEDQLETSSDEEDVIPAPPINYARSFSTVPATPLTYSLRSVIVHYGTHNYGHYIAFRKYRGCWWRISDETVYVVDEAEVLSTPGVFMLFYEYDFDEETGKMKDDLEAIQSNNEEDDEKEQEQKGVQEPKESQEQGEGEEQEEGQEQMKFERTEDHRDISGKDVN | efficient processing of Ub-IL-18 to mature active IL-18 |  |  |
| 6-his tagged N-terminally truncated caspase 5 (protein) MGHHHHHHGILKLCPREEFLRLCKKNHDEIYPIKKREDRRRLALIICNTKFDHLPARNGAHYDIVGMKRLLQGLGYTVVDEKNLTARDMESVLRAFAARPEHKSSDSTFLVLMSHGILEGICGTAHKKKKPDVLLYDTIFQIFNNRNCLSLKDKPKVIIVQACRGEKHGELWVRDSPASLAVISSQSSENLEADSVCKIHEEKDFIAFCSSTPHNVSWRDRTRGSIFITELITCFQKYSCCCHLMEIFRKVQKSFEVPQAKAQMPTIERATLTRDFYLFPGN |  | cleavage to mature EL-18 with caspase-5 is complete by 18 hours at 29 °C | The cleavage reaction of prodomain was completed >90 % according to SDS-PAGE analysis |
| 6-his tagged N-terminally truncated caspase 4 (protein) MGHHHHHHGALKLCPHEEFLRLCKERAEEIYPIKERNNRTRLALIICNTEFDHLPPRNGADFDITGMKELLEGLDYSVDVEENLTARDMESALRAFATRPEHKSSDSTFLVLMSHGILEGICGTVHDEKKPDVLLYDTIFQIFNNRNCLSLKDKPKVIIVQACRGANRGELWVRDSPTSLEVASSQSSENLEEDAVYKTHVEKDFIAFCSSTPHNVSWRDSTMGSIFITQLITCFQKYSWCCHLEEVFRKVQQSFETPRAKAQMPTIERLSMTRYFYLFPGN |  | Cleavage to mature IL-18 with caspase-4 is complete by 4 hours at 37 °C or by 18 hours at 29 °C | The cleavage reaction of prodomain was completed >90 % according to SDS-PAGE analysis |
